Laboratory results from US7098304B1, “Assay for the diagnosis of schizophrenia based on a new peptide” (Yeda Research and Development Co. Ltd., priority 1998, dated 2006).

B1: G-3-P-Dehydrogenase from bacillus subtilis: glyceraldehyde-3-phosphate dehydrogenase (G3PD) enzyme from bacillus subtilis (protein)
chain: AVKVGINGFGRIGRNVFRAALNNPEVEVVAVNDLTDANMLAHLLQYDSVHGKLDAEVSVDGNNLVVNGKTIEVSAERDPAKLSWGKQGVEIVVESTGFFTKRADAAKHLEAGAKKVIISAPANEEDITIVMGVNEDKYDAANHDVISNASCTTNCLAPFAKVLNDKFGIKRGMMTTVHSYTNDQQILDLPHKDYRRARAAAENIIPTSTGAAKAVSLVLPELKGKLNGGAMRVPTPNVSLVDLVAELNQEVTAEEVNAALKEAAEGDLKGILGYSEEPLVSGDYNGNKNSSTIDALSTMVMEGSMVKVISWYDNESGYSNRVVDLAAYIAKKGL
B2: Enolase from Rabbit: commercially available rabbit protein enolase (protein)
chain: AMQKIFAREILDSRGNPTVEVDLHTAKGRFRAAVPSGASTGIYEALELRDGDKSRYLGKGVLKAVEHINKTLGPALLEKKLSVVDQEKVDKFMIELDGTENKSKFGANAILGVSLAVCKAGAAEKGVPLYRHIADLAGNHDLVLPVPAFNVINGGSHAGNKLAMQEFMILPVGASSFREAMRIGAEVYHHLKGVIKAKYGKDATNVGDEGGFAPNILENNEALELLKTAIQAAGYPDKVVIGMDVAASEFHRNGKYDLDFKSPDDPARHITGQKLGELYKSFIKNYPVVSIEDPFDQDDWATWTSFLSGVDIQIVGDDLTVTNPKRIAQAVEKKACNCLLLKVNQIGSVTESIQACKLAQSNGWGVMVSHRSGETEDTFIADLVVGLCTGQIKTGAPCRSERLAKYNQLMRIEEALGDKAVFAGRKFRNPKAK

Columns and labels:
[1] = system: NSDAs (non-schizophrenic derived antibodies); test: Reactivity of proteins to NSDAs (platelet autoantibodies from control non-schizophrenic individuals), blot with anti-human Fc-HRP; type: binding; details: number of NSDA samples that reacted positively with the enzyme, of 8 controls
Procedure: (§1) 1. Platelets and Anti-Platelet Autoantibodies Venous blood (20 ml) was drawn with heparin as anticoagulant from patients and control subjects. Platelet rich plasma (PRP) was obtained by centrifugation (100 g for 20 mins) at room temperature. Plasma free platelets were obtained by washing them three times with phosphate buffered saline (PBS) supplemented with 10 ml mM EDTA as anticoagulant (4000 g; 15 mins; 4° C.). For the isolation of anti-platelet antibodies, the platelets were incubated with 0.1 M glycine/10 mM EDTA, pH 2.8, for 10 min. at room temperature and then centrifuged (4000 g; 15 min; 4° C.). The supernatant containing the anti-platelet antibodies, was neutralized with saturated Na2PO4 solution and stored at −20 until use. 2. Preparative Isoelectric Focusing
(§2) The fractions were analyzed for immuno-reactivity by polyacrylamide (10%) gel electrophoresis, blotting the proteins onto PVDF membranes and probing the membrane with 1 ml auto-antibodies in 50 ml incubation buffer. Anti-human Fc conjugated to horseradish peroxidase (goat) from SIGMA (1:500 dilution) and Fast-DAB™ (SIGMA) or 4-Chloro-naphthol (SIGMA) were used as color reagent in order to detect bound human anti-platelet antibodies.
(§3) Every fifth fraction (0.1 ml) was dot blotted onto PVDF membranes using the DotBlot device (96 wells) from BioRad. Immuno-reactive fractions were then detected as described above (1.3) […]

[2] = system: SDAs (schizophrenic derived antibodies); test: Reactivity of proteins to SDAs (platelet autoantibodies from schizophrenic patients), blot with anti-human Fc-HRP; type: binding; details: number of SDA samples that reacted positively with the enzyme, of 8 patients
Procedure: as §1, §2, §3

| Molecule | Controls (n = 8) Positive [1] | Patients (n = 8) Positive [2] |
| --- | --- | --- |
| B1 | 2/8 | 1/8 |
| B2 | 1/8 | 7/8 |
